# According to the supplement of paper PMC9170038:
# System: K4 kissing-loop RNA reporter
# Test: apparent KD of K4 kissing-loop reporter; higher = weaker reporter binding
# Details: Eterna round: R107
# Method: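 RNA-MaP round R107: designed RNA switches with theophylline, tryptophan, arginine or FMN aptamers are transcribed on-chip within common flanks. They are titrated with a labelled K4 kissing-loop RNA reporter in RNA-MaP buffer (100 mM Tris pH 7.5, 80 mM KCl, 4 mM MgCl2), without ligand or with the indicated ligand. Median apparent KD per design.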
# [1] = input ligand: theophylline 20 uM
# [2] = input ligand: tryptophan 2.4 mM
# 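Note: bound reporter read as fluorescence of individual clusters on recovered sequencing chips by microscopy, with normalized cluster intensities fitted with a binding model.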
Sequence,apparent KD of K4 kissing-loop reporter (input ligand: FMN 200 uM) [nM],apparent KD of K4 kissing-loop reporter (input ligand: arginine 13.2 mM) [nM],apparent KD of K4 kissing-loop reporter (input ligand: none) [nM],apparent KD of K4 kissing-loop reporter [1] [nM],apparent KD of K4 kissing-loop reporter [2] [nM]
CUUGAAAUGACUGAUACCAGUGAAAAUCUAUGUAGUGAUGUUAUAUACUAAUUUAAUAAGCGCCCUUGGCAGCAGUAUGAAUUAU [AstrosExc-theB#18],657,260,532,561,445
ACGUAGUUCUAGGAUACCAGCCAAAUAGCCAGGACGAGAGUCCUGGCUGCCAGUGAUGUUGGCCCUUGGCAGCCUAGAACUACGA [Theo B Ex Mod Omei v10],166,134,138,233,146
GGAUAGGACAGAGGAUAUCUCUGAGGCAAGAAAACUUGUCUCUAAAGGGAUGACUCAGUGAUGUUGAGAGAAGGCUGUCCUAUCG [FmnBX 11 - #SwitchBubble #StaticStem],295,141,154,140,149
UUUAUAAAGUCGGCCGCCACUGGAUUUAUAUUUGUUUCGUCUGGAUCAAAGUGAUGUUUUGAGUCCAGGACCGGGACAUUUGUUA [whbob_Ex_Tryp_B_w37],80.7,71.1,74.6,69.1,93.2
UACUUAUAGUUAUUUCUACAUUUAUUUAGUCAGGAUAUCGAUUAGUCGAGAAGGGACAAUAUCAAGUGAUGUUUGAUAAUUCAAA [JR_ExcFMNA_Sub012],89.9,161,119,158,84.9
AUGCGCGUGCGAUGCAAAUCGCACGCGCAUCGAGGACCGGUACGGCCGCCACUCGCUCGCGCCGAGUGAUGUUCGGCCGGCGAAC [#2 Same State - Tryptophan A Attempt #6 (HarryS)],258,243,269,327,565
UGAUAGGACAGAAGGAGCGGUAGUGAUGUUGCCAAAAGGAUAAGGUGUCAAAAGACACCCUACCAGGUAGGUCGCUGUCCUAUCU,175,216,154,179,152
UGUACCGAGUCAGGAUAUGGCGUCGAAAGACGAAUCUUAGUGAUGUUAGGGAUCUGCGAAAGCAGUCUAGAAGGGACUUGGUACU [FmnBS 26 U37+U68],396,372,439,574,462
AUUCAGAUCUGAAGGAGCGCGUUAAGUCAAUGCUUCAUAGAGCAGUGAUGUUGCUCUGAAACGCAGGUAGGUCGCAGAUCUGACC [Arg B SS t17],295,250,325,288,287
UUUAACGAGUGAUGUUCGAAGAGUAAGGGUGAGGAUAUCGAUUUUUCGAGAAGGCGCCUCGAAGUGAUACGAAAGUAUCGCUUCG [FMN A 7],246,224,269,269,215
CGCCAGUGAUGUUGGCGCAGCUACCGGGAAGGAGCGCCGUAGUCGGCAGGUAGGUCGCCCGGGCAGUGAUGUUGCCUCAUACCGU [Exclusion Arginine A GF 21],229,247,258,347,236
UCCAGCAGUACUGAUACCAGACUGCAUGUAGUGAUGUUGCAUAAGGGCAUAGAUGUCUCAGUCCCUUGGCAGCAGUACUGUUGCA [Theo B SS t1],317,239,284,191,257
AACGCCACCGCGGAUACCAGAGCCAGUGAUGUUGGAUCUGGAAAUUCGUGGGUAAGCUGGCUCCCUUGGCAGCUGCGGUUCUUUU [Tiisaron],134,112,114,131,109
AUUGUAUACUGAAGGAGCGAGUAGUGGAAACAUAAACUCAUUGCGAGUGAUGUUCGCAGUACUCAGGUAGGUCGCAGUAAUGGUA [Exclusion Arginine B Gf 9],756,167,528,242,451
UAAAUAAUAAAACGAGUGAUGUUCGACGAUACCAGCCUCGAUAGAGGCCCUUGGCAGCGUAAAUGAUCACAAAGCCAAGGAAUAA [#OpenEnded 1],158,174,158,192,134
CUUGGUCCACGAAGGAGCGCCGUGCAGUGAUGUUGCAGUCAGAUCGAGUGAUGUUUCGGGCGGCAGGUAGGUCGCGUGGCCCUUU [Excusion Arginine B GF 25],655,362,768,640,464
ACGAAGGAUGGAAGGAGCGCUCGUCAGUCCUGCGAGUGAUGUUCGUGGGUAAAUAGUCGCGAGCAGGUAGGUCGCCAUCUUGAGC [Isarteza],133,104,119,112,108
AAUCUCCUAGUGAUGUUAGGUUUAAGGGAAGGAGCGAGGUAAUACUCAGGUAGGUCGCCCACAUGCAUUAAUAAAUCAAUUUAAU,102,73.8,91,98.8,84.2
AGCCUAGGAGUCAUUUCCUGCCCGUACGAUACCAGCAUUACCAGUUGCCCUUGGCAGCGUUAUAAGGCCAGUGAUGUUGGCCACU [theeternabot_sameState_KL_Theo_A_22],168,175,185,197,167
UGUGCCAACAGCGAUACCAGCCCGGCAGUGAUGUUGCCGGACGGAGUGAUGUUCCGGCAGGGCCCUUGGCAGCGCAGAAGCGCGA [Exclusion Theophylline B Gf 28],215,222,261,432,202
UGUCAUUGGUCUGAUACCAGUUAGACCGAUAAGGUCAAAACUGGAGUGAUGUUCCCAAAUAACCCUUGGCAGCAGACCGAUGACU [TheoBS 5 #SwitchBubble #StaticStem],452,116,185,249,241
AAGGGCCGGGCGGCCGCCACUGGUCGUGUACACGUACUAACCAGUGAUGUUGGUAUAGUACGCGACAGGACCGGGCCCGGCCCAA [Exclusion - Tryptophan B (Freestyle 30)],405,359,445,297,236

Sequence,apparent KD of K4 kissing-loop reporter (input ligand: FMN 200 uM) [nM],apparent KD of K4 kissing-loop reporter (input ligand: arginine 13.2 mM) [nM],apparent KD of K4 kissing-loop reporter (input ligand: none) [nM],apparent KD of K4 kissing-loop reporter [1] [nM],apparent KD of K4 kissing-loop reporter [2] [nM]
AAGUGUUCUAGUGAUACCAGACAAUUUUAUUUUUUCUUUUUUGCUAAGUGAUGUUUAGCAGUCCCUUGGCAGCACUAUUUCACUA [JR_SSTheophyB_Sub018],129,109,106,147,128
UGGCAGGUAUCGGCCGCCACUUUCUAGUACAUACGCAUAUCUUUACCAUCAGUGAUGUUGAUCAUAAGGACCGGGAUACAUCAGG [theeternabot_exclusion_KL_Trp_B_22],243,208,249,220,200
AAUAUACAGGGAAGGAGCGUCGUCCAGUGAUGUUGGAGUUAAAUACCAGUGAUGUUGGUUAGGCAGGUAGGUCGCCCUAAAGUAU [KL-XARG-B15],93.6,68.3,86.7,85.1,73.9
ACAUGCCCAGUGAUGUUGGAUAAAUAUGAAGGAGCGUGCGAAAGCACAGGUAGGUCGCAUAAUAGCAUGAGUCACGAAAGUGACA [#18 K4 Arginine A Same State],327,291,356,278,209
AGUCCACUCUAAAGAGUGGACCUAAGGGAUACCAGUGAUGUUGGUCACCCUUGGCAGCCCUCUGUCAUCGAUAAAGAUGGCAGCA,132,114,136,149,145
UUUUAAUAAGAGGAUACCAGUACAAAUAAAGUACAUUAAUAGUAGAGUGAUGUUCUAAAGUACCCUUGGCAGCUUAGAGUAAGUU [ExTheophylB.B],123,242,156,260,99.8
UGUCAUUGGUCUGAUACCAGCUUGAUCGGUAAACGAUCUACUGGAGUGAUGUUCCUAAAUAGCCCUUGGCAGCAGACCGAUGACU [TheoBS 4 #SwitchBubble #StaticStem],197,157,180,123,173
CCUAUCUCAUACGAUACCAGUGAAUUUAUGUUUAUUAGCAGUGAUGUUGCAUUCCAAGUACACCCUUGGCAGCGUAUGGGAUAGG [Ex Theophylline B K4 23],178,201,205,193,151
AGUACGCCCAGUGAUACCAGCCCGCCUGGGCAGUGAUGUUGCUCGGGAAAUAAAAUAGAGGGCCCUUGGCAGCACACGGUAGUCC [Cees],186,144,189,107,174
ACGUCCGGAUUAAUCGUGGGCAUGGUGGAUACCAGUUCUUUAAUGAACCCUUGGCAGCCACAUGAGUGAUGUUCAUGUGCGAUGA [KL-XTheo-A9 #analogue],145,117,141,187,140
GGAUAGGACAGAGGAUAUGGAGCUAGGCAAGAAUAACUUGUCUAGCAAUCCAUGAGGAGUGAUGUUCCAGAAGGCUGUCCUAUCG [FmnBX 2 - #SwitchBubble #StraticStem #DoubleMagnetSystem],825,156,155,163,116
UGACUGGACUGAAGGAGCGCUUAACUCCUAGUGAUGUUAGGGAAACGAGACAAAGUCUCGAAGCAGGUAGGUCGCAGUCUAGUCU,216,164,217,211,194
UGACUGGACUGAAGGAGCGCUGAACUCCUAGUGAUGUUAGGAUAACGAGACAAAGUCUCGAAGCAGGUAGGUCGCAGUCUAGUCU,118,95.3,112,123,108
CAGAUAACCUAGGAUACCAGCGUCGCUGACAGGUCGCUGGAGAAGUACAGUGAUGUUGUGCGCCCUUGGCAGCCUGUUUACACAG [theeternabot_exclusion_KL_Theo_B_32],255,204,223,207,198
UGUACCGAGUCAGGAUAUGGUAUAGCGGAAACGCACCAGUGAUGUUGGACGCGAAAGCGAUAAAAUCCAGAAGGGACUUGGUACU [FmnBS 20 #SwitchBubble #StaticStem #DoubleMagnetSystem],184,224,209,221,207
AUUUUAGAGUGAUGUUCUAAUUGAUCAGAUACCAGACAAUUAUAAGUCCCUUGGCAGCUGUAGCCGAUAAAUUUAUUUAAUUUAA [JR_SSTheophyA_Sub024],229,275,302,373,225
CUUGAAAUGACUGAUACCAGUGAAAAUAUAUGUAGUGAUGUUAUAUACUAAUUUAAUAAGCGCCCUUGGCAGCAGUAUGAAUUAU [AstrosExc-theB#17],861,516,868,764,702
GCCCUUCAGGUCGGAGUGAUGUUCCAAUGGAAGGAUAUCCGGGCUCGGAGAAGGUCCAAUUGUGUCUUGUUAAGGUGCUCACUAC [theeternabot_sameState_KL_FMN_A_46],251,221,215,203,223
ACACUUUACGUAGGAUAUGCGACGAGUGAUGUUCGUCAGGCGGCUUUAGAUUAAACAAGCCGCCUAGCAGAAGGACGGGCAGUGU [Zaorleon],126,147,188,178,144
AAGCUCAGCGUGACUCGAUAAGAGUCACAACGAGGACCGGUACGGCCGCCACUCGAAAUAAGGGAGUGAUGUUCUCGCUGAGCAA [#SwitchBubble 5 #StaticStem #K4Late],348,134,291,364,587
AUUUUUUUAUCAGGAUAUUAGUGAUGGUUUUUUUUGUUAGUGAUGUUGAUAUUUGUUUUAUGUAUUUAAGAAGGGAUUGAGAUGU [tzzsullin],120,41.2,56.9,64.4,84.2
